From the Human Domainome abundance scans (Beltran et al. 2025)
± gives the uncertainty stated by the source.

B1: Tripartite motif-containing protein 44, residues 174 to 218; numbered along this chain, Q96DX7 (parent)
chain: VAKRKCPDHGLDLSTYCQEDRQLICVLCPVIGAHQGHQLSTLDEA
B2: Far upstream element-binding protein 2, residues 142 to 214; numbered along this chain, Q92945 (parent)
chain: RTSMTEEYRVPDGMVGLIIGRGGEQINKIQQDSGCKVQISPDSGGLPERSVSLTGAPESVQKAKMMLDDIVSR

Variants of: B1
Assay: abundance fitness (aPCA) (normalised: wild type 0, dead -1); higher = more abundant; growth selection in yeast, the domain comes from the species named
Details: Homo sapiens

| Variant | abundance fitness |
| --- | --- |
| A45K | -0.046 ± 0.14 |
| A45V | -0.022 ± 0.042 |
| A45R | -0.006 ± 0.033 |
| A45P | 0.004 ± 0.049 |
| A45T | 0.021 ± 0.039 |
| A45Q | 0.044 ± 0.38 |
| A45I | 0.168 ± 0.087 |
| A45W | -0.036 ± 0.05 |
| A45M | -0.029 ± 0.058 |
| A45D | 0.002 ± 0.05 |
| A45C | -0.058 ± 0.078 |
| A45S | -0.243 ± 0.036 |
| A45E | -0.096 ± 0.092 |
| A45L | -0.093 ± 0.045 |
| L42T | 0.068 ± 0.033 |
| L42V | 0.023 ± 0.027 |
| L42P | 0.027 ± 0.035 |
| L42A | 0.045 ± 0.027 |
| L42E | 0.035 ± 0.03 |
| L42K | 0.043 ± 0.035 |
| L42F | -0.031 ± 0.053 |
| L42D | 0.028 ± 0.049 |
| L42C | 0.014 ± 0.036 |
| L42M | -0.003 ± 0.031 |
| L42Q | 0.048 ± 0.033 |
| L42H | 0.056 ± 0.049 |

| Variant | abundance fitness |
| --- | --- |
| L42Y | 0.017 ± 0.039 |
| L42W | -0.034 ± 0.028 |
| L42N | 0.002 ± 0.047 |
| L42S | 0.033 ± 0.028 |
| L42R | 0.024 ± 0.026 |
| L42G | 0.05 ± 0.025 |
| Q38W | -0.255 ± 0.031 |
| Q38V | -0.071 ± 0.027 |
| Q38T | 0.039 ± 0.033 |
| Q38R | -0.006 ± 0.026 |
| Q38Y | -0.145 ± 0.044 |
| S40V | -0.083 ± 0.027 |
| S40F | -0.108 ± 0.041 |
| S40G | 0.015 ± 0.025 |
| S40E | -0.012 ± 0.029 |
| S40W | -0.177 ± 0.027 |
| S40L | -0.084 ± 0.029 |
| S40P | -0.044 ± 0.031 |
| S40C | -0.027 ± 0.032 |
| S40Q | 0.012 ± 0.038 |
| S40N | -0.118 ± 0.048 |
| S40M | -0.103 ± 0.032 |
| S40D | -0.032 ± 0.039 |
| S40K | -0.041 ± 0.032 |
| S40T | -0.066 ± 0.029 |
| S40H | 0.022 ± 0.038 |

| Variant | abundance fitness |
| --- | --- |
| S40R | -0.033 ± 0.026 |
| S40I | -0.079 ± 0.058 |
| S40A | -0.008 ± 0.027 |
| T41Q | 0.011 ± 0.037 |
| T41Y | -0.098 ± 0.036 |
| T41I | -0.11 ± 0.04 |
| T41N | 0.009 ± 0.042 |
| T41E | 0.02 ± 0.028 |
| T41W | -0.131 ± 0.029 |
| T41M | -0.065 ± 0.03 |
| T41A | 0.024 ± 0.027 |
| T41L | -0.087 ± 0.028 |
| T41D | 0.016 ± 0.034 |
| T41S | 0.032 ± 0.03 |
| T41F | -0.254 ± 0.051 |
| T41P | 0.003 ± 0.033 |
| T41G | 0.009 ± 0.025 |
| T41H | -0.102 ± 0.049 |
| T41V | -0.038 ± 0.026 |
| T41C | -0.029 ± 0.032 |
| L39A | -0.02 ± 0.029 |
| L39I | -0.024 ± 0.054 |
| L39P | -0.032 ± 0.034 |
| L39V | -0.019 ± 0.027 |
| L39N | -0.043 ± 0.056 |
| L39K | -0.06 ± 0.034 |

| Variant | abundance fitness |
| --- | --- |
| L39M | 0.028 ± 0.03 |
| L39G | -0.041 ± 0.025 |
| L39S | -0.021 ± 0.031 |
| L39Y | -0.129 ± 0.05 |
| L39D | -0.025 ± 0.035 |
| L39R | -0.011 ± 0.027 |
| L39C | -0.06 ± 0.034 |
| L39Q | 0.033 ± 0.032 |
| L39F | -0.026 ± 0.05 |
| L39H | 0.011 ± 0.05 |
| L39E | -0.021 ± 0.029 |
| L39W | -0.035 ± 0.028 |
| L39T | 0.019 ± 0.033 |
| D43G | -0.013 ± 0.026 |
| D43K | -0.073 ± 0.037 |
| D43A | -0.036 ± 0.027 |
| D43V | -0.056 ± 0.027 |
| D43L | -0.107 ± 0.028 |
| D43Y | -0.112 ± 0.045 |
| D43H | -0.058 ± 0.044 |
| D43W | -0.211 ± 0.029 |
| D43M | -0.072 ± 0.035 |
| D43Q | -0.035 ± 0.032 |
| D43P | 0 ± 0.029 |
| D43R | -0.072 ± 0.026 |
| D43C | -0.042 ± 0.033 |

| Variant | abundance fitness |
| --- | --- |
| D43I | -0.132 ± 0.041 |
| D43T | -0.042 ± 0.029 |
| D43E | 0.023 ± 0.028 |
| D43S | -0.026 ± 0.029 |
| D43N | -0.026 ± 0.044 |
| D43F | -0.157 ± 0.034 |
| E44H | 0.102 ± 0.068 |
| E44D | -0.053 ± 0.034 |
| E44R | -0.032 ± 0.027 |
| E44V | -0.065 ± 0.029 |
| E44S | -0.01 ± 0.031 |
| E44T | 0.014 ± 0.03 |
| E44Q | -0.031 ± 0.038 |
| E44N | -0.014 ± 0.052 |
| E44L | -0.082 ± 0.031 |
| E44W | -0.14 ± 0.028 |
| E44M | -0.058 ± 0.039 |
| E44K | -0.056 ± 0.037 |
| E44G | -0.002 ± 0.027 |
| E44F | -0.123 ± 0.054 |
| E44Y | -0.232 ± 0.046 |
| E44I | -0.132 ± 0.054 |
| E44C | -0.055 ± 0.032 |
| E44A | 0.009 ± 0.028 |

Variants of: B2
Assay: as above
Details: Homo sapiens

| Variant | abundance fitness |
| --- | --- |
| G13L | -0.174 ± 0.044 |
| V15N | -0.376 ± 0.13 |
| E48I | -0.157 ± 0.085 |
| G22P | -0.572 ± 0.056 |
| V10L | 0.068 ± 0.041 |
| V10T | -0.464 ± 0.051 |
| V10Y | -0.224 ± 0.077 |
| A63S | -0.782 ± 0.066 |
| R21K | 0.056 ± 0.051 |
| S72C | -0.116 ± 0.067 |
| S72L | -0.103 ± 0.043 |
| K64V | -0.465 ± 0.044 |
| K64D | -0.567 ± 0.067 |
| L17V | -0.113 ± 0.048 |
| P11H | -0.536 ± 0.089 |
| P11W | -0.765 ± 0.069 |
| V60K | -0.377 ± 0.069 |
| D69A | -0.019 ± 0.043 |
| G23D | -0.187 ± 0.084 |
| G34M | -0.391 ± 0.074 |

| Variant | abundance fitness |
| --- | --- |
| E58P | -0.305 ± 0.052 |
| G45V | -0.107 ± 0.046 |
| G45F | -0.218 ± 0.081 |
| G45K | -0.207 ± 0.066 |
| L53W | -0.994 ± 0.08 |
| G20W | -0.96 ± 0.067 |
| A56H | 0.026 ± 0.081 |
| M4N | -0.178 ± 0.084 |
| R1K | 0.166 ± 0.063 |
| R1Y | -0.195 ± 0.13 |
| R49M | -0.127 ± 0.062 |
| S50A | -0.04 ± 0.047 |
| L46Y | -0.153 ± 0.074 |
| D12W | -0.524 ± 0.062 |
| Q31W | -0.316 ± 0.054 |
| I18W | -0.562 ± 0.049 |
| I18Y | -0.494 ± 0.079 |
| S40K | -0.007 ± 0.065 |
| E24V | -0.092 ± 0.042 |
